Measurements: the RNAGym collection of RNA variant scans (doi:10.1073/pnas.2313332121)
Variants at the floor of the assay were thinned out.

B1: TPR 5TU (parent)
chain: GGAUCUUCUCGAUCUAACAAAAAAGACAAAUCUGCCACAAAGCUUGAGAGCAUCUUCGGAUGCAGAGGCGGCAGCCUUCGGUGGCGCGAUAGCGCCAACGUUCUCAACUAUGACACGCAAAACGCGUGCUCCGUUGAAUGGAGUUUAUCAUG

Variants of: B1
Assay: polymerase ribozyme fitness, log enrichment relative to wild type (log ratio); higher = more active; in vitro selection for triplet polymerase activity
How it was run: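 In triplicate, a single round of in vitro selection was run on each mutant library, PCR-built and transcribed, covering one subunit of a heterodimeric triplet polymerase ribozyme. Frozen incubation at −7 °C followed annealing with a biotinylated primer, partner subunit and triplets, and extended constructs were then gel-excised, streptavidin-captured and taken through RT-PCR. Fitness is the logarithm of genotype enrichment over wild-type enrichment, from inverse-variance-weighted replicate averages of Illumina-sequenced inputs and outputs. […] only genotypes with ≥10 input reads and ≥1 read per output were kept.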

Variant | polymerase ribozyme fitness (log ratio)
G48A A60G G84U | -1.73
U55A G84A G117U | -0.634
C36A G48U C54G C57A C72A A91C | ≤ -4.2
C35G G48U G70A G92C C96G U146A | ≤ -4.2
C57G A89G C93A | ≤ -4.2
U53A C96U C99U G143C | ≤ -4.2
C57G C96G U145A | -0.71
A41C G59C U82C G86C C108G G141U | ≤ -4.2
A20C C96U | -1.24
U55A C57U G84A G141C | -0.559
A66G C123G | ≤ -4.2
C118U U146C | -1.27
A28U A47C G74C C95U A142C C149A | ≤ -4.2
U15A A39G U53A A73U C85U G124U U134C U135C | ≤ -4.2
A49C U77G A121C U148A | ≤ -4.2
G50U U55A A66G C95U C103A A138U | ≤ -4.2
U9G | -2.82
A97G A150C | -2.96
A16C U56A C103A G124U G143C | ≤ -4.2
C75G C85G A147U | ≤ -4.2
G84U C93G | ≤ -4.2
C51U G83U | -0.266
G80A C85U G136A G143C | -1.57
A20G A22U C93G | -4.09

Variant | polymerase ribozyme fitness (log ratio)
A28C A60G C69U G74A U135G A138U G141U | ≤ -4.2
A23G C54U C93U G128C | ≤ -4.2
A24U G58C G88A C93U A121G | ≤ -4.2
C69A G71U | -0.808
G48A C87U A91U C93U | ≤ -4.2
C87A G124U | ≤ -4.2
G59C C99G G141U | -1.13
U7C C38U C95A A119U | -2.61
A23G U61G C93G G126A | ≤ -4.2
U53A C76A | -2.19
C57U C93A | -1.61
U7G A47U U55A C57A C63U C95U | -3.6
A16U U56A G62A U82G C85U A142G | -4.16
C93A A113U | -4.07
C10U G11U A29C U44G U55A G68A G71U G80A C93A A98U A138C | ≤ -4.2
G42A C51G C75G C99U | ≤ -4.2
U33G G48A G59A G84A G88A C149U | ≤ -4.2
A28C U55A C75G | ≤ -4.2
C51U A73G C96G C123U | -0.999
C8A U9C A30U C87U C95U C129A | ≤ -4.2
A12U C87A | -4.15
A49C C51U G133A G143U | ≤ -4.2
G58C C79U C85G G141U | ≤ -4.2
A52C G81A G86U | -2.1

Variant | polymerase ribozyme fitness (log ratio)
A98U A115U A121G U127G | -3.32
C27U U33G C95U | -3.46
C87U A106G U139C | -3.59
U82A A115U U135A | -2.53
A41U A49C | -3.83
G92A C116A G143C A150G | ≤ -4.2
G94C U104G | -1.24
G67A | -3.22
G94A C116G | 0.466
C54U C87U C99U U135C | -3.26
C43G G84A C95A A106U C118G G143U | ≤ -4.2
C116A U151C | -4.09
C18U U61G A91C C93G C96U C99U A147U | ≤ -4.2
A3C A49C C96A | ≤ -4.2
A21C U55A C96U | -0.915
A26U U61A G71C C79U A98G U151A | ≤ -4.2
A39G G141C | -2.65
A3C U4A U6C U15C A17G C38U C54U C72U G86U U127G | ≤ -4.2
U13C C35G C36G U55G G86U | -4.16
G84U G133C | -3.53
C51U G81C C85U G117C U134A A137G | -3.98
A21C G25C C76G A137C U145G | ≤ -4.2
G59U U139C | -3.8
U33G C35G A60G A107G | ≤ -4.2

Variant | polymerase ribozyme fitness (log ratio)
C10A U31G C35G G42C C69U G92A C95G G100A G143A | -3.74
A28U G67U C103A | ≤ -4.2
C57G G80A G84A | -0.169
C57U C87G | ≤ -4.2
A29C U44A A52U G58A C118A | ≤ -4.2
C14G A21C C54A G67A G94U C123U | ≤ -4.2
G58A A66G C93U C99U | ≤ -4.2
G50A G86A | -3.01
C57U A73G G84C C95A C118G | -2.62
U56A G59C U144G | 2.23
A47C G74U A107G A122U | ≤ -4.2
C38U G83A G100A C129G | ≤ -4.2
A40G A64G G136A | ≤ -4.2
A16C C85U A106U G126A | -3.28
G50C U55A | -3.29
A66U A89G | ≤ -4.2
A26U G46U G58A A73U C85G U111G A150U | ≤ -4.2
U31C C69U G86U C96U A142G | -2.99
U13C U56G A115G | -2.32
C93A G126A A137G | -2.09
A21U G48A U55A C75U G83C A89G A98U C105U G117A U144C | ≤ -4.2
A12U A16U A17U C27U A47U G48A C76G G86U U145A G152U | ≤ -4.2
C5A A47G C79A G83U G140A U146G | ≤ -4.2
C5U A29U G62A G67C A142U | ≤ -4.2

Variant | polymerase ribozyme fitness (log ratio)
A30G G48U G86U C149U | ≤ -4.2
A24C C51U C105G | ≤ -4.2
C27A U55A G71A U77C C95U A113C C149G | ≤ -4.2
A19G A20G A60G C76A A89U C93A | ≤ -4.2
A52U C54G | -2.21
A24U A47C G71C A97U A98G C129G | ≤ -4.2
A98G A120G C125A U144A | -1.16
U53A C96A C129G | -3.82
A12C C14G A26U A49C G59A C131A | ≤ -4.2
A3U G11A C14G U53C C76G G117U | ≤ -4.2
A3C C36U G83A | -3.09
C14A A26U G46A C85U C105A A113G C114A G128A A147G | ≤ -4.2
G48C U145G | -0.0374
A24U A26G A64C G84U A97U A122C | ≤ -4.2
A64G C99A G143A | ≤ -4.2
C8A A39G G84U A106U C149G | ≤ -4.2
C35U U55G A91G A106G G141A | ≤ -4.2
C93G C105A A107G G141U | ≤ -4.2
A30U U77A G84U A91C G94C C99G G141C | ≤ -4.2
U9G G46C C76A C85G U90G A121U | ≤ -4.2
C51U G94A | -1.11
U44A G88C | ≤ -4.2
A49C A52C C57A A91U C96G G112A G117U G143C A150G | ≤ -4.2
U9A A17U G58A U151A | ≤ -4.2

Variant | polymerase ribozyme fitness (log ratio)
U6G A12U A22U A64U G88C C95U | ≤ -4.2
A39U U78A G83A G84C A115U U134C G136U | ≤ -4.2
U55G U82G C85A A97C U104C G136U | -3.65
A39U G59C G83U A147U | -2.17
G50U A120U C125G | -0.502
G83U A115C | -0.337
A23U C85U | -3.33
A16G A20U C99U U102G | ≤ -4.2
U55A G84U A106C U144C U146C | -4.16
G34A A40U U45C C69A C76A C87U G94A A106G A122U G124C U151A | ≤ -4.2
A64C A107C C131A | ≤ -4.2
A17U C57G C69A | -2.58
C36A C54G C57A G86A U139G | ≤ -4.2
A17U G58U G74C G86A | ≤ -4.2
G25U G71C U145G | ≤ -4.2
A89C C96A A115G | -2.74
C38U A60U C87U C95G U135A | ≤ -4.2
C85A A142C | -3.23
A47G C63G G92U C93U | -1.34
A26U G81A | -1.66
C51A U127G | -4.1
A41C U77C G80A U102C U144G | ≤ -4.2
U61A G92U | -3.41
G59C G100A A115C U144C | ≤ -4.2

Variant | polymerase ribozyme fitness (log ratio)
U56A C72G | -3.76
A40C G141A | 0.793
A110C G112A G140C A142U | -4.12
A41U U55C C63U G86A | -2.8
U61G C63A G71U G80A G94U C105G C116G U139A | ≤ -4.2
C93U C116U C123A | -1.16
G48A G59U G94A C114A C125A | ≤ -4.2
A47C G83A C99U A120U | -3.03
A47G U55G | 0.325
U9C C38U A52U C75G G92U G94A G136U U144G | ≤ -4.2
U7A C8U A73G G81A G83A C96A A119U G124C | ≤ -4.2
C57U G94U | -0.85
C10A A22U A24G A40C A52C C57U G70A C93U A147C | -4.05
G50U G58U G59U C76A | ≤ -4.2
A19C A22G U31G C38U A107U G117A | -4.16
A28U A30U A39U G50C C57G C75G U82A G83C G124U | ≤ -4.2
A37C U77C G92A C96A U139C | ≤ -4.2
G81A G86A U148A | -3.94
A28G U56A G136C | ≤ -4.2
A30U A73G | -3.78
C99G A121C U151A | ≤ -4.2
C63U C125U G133U | -3.67
G50C A73G G84A | -4.1
